Substrate: CC(=O)Oc1cccc2ccccc12
Test: purified protein
Format: biochemical, Rhopalosiphum padi
Conditions: Tris-HCl buffer, 3 mM Fast Blue RR salt, 5 min

B1: RpCarE (Rhopalosiphum padi) (protein)
chain: MEVVIEQGVLKGVQNKTLLSNKPYVSFLGIPYAKPPVNDLRFKPPVKHPGWSGILKAISERDRCMQYAFVANDIIGSEDCLYLNVLVPQNGLNEKLAVMIFIHGGAFNYGCGSVNEQSPDYLLDENVIVITLNYRLNALGFLNLDIDECPGNMGLKDQLFAIKWIKANIAAFGGDVNNITIFGESAGSVSVHYHTMSPQSTGLFQKAIMQSGCAFNPWALNENHRVAAFKLAKNLGCLSSDPNEIVKYLRNVSAIDLVKETKFKDDNGFLDYKFVPSIESDMVSDRFLPAHPKTLATIASPVPVIVGLNSMEGIIALSEYRLSKFSDLQITDEISKLFNNQYSTEVISKIKDFYFNKCNNNCEIAKLENICHLHSDVFFVKDFYRGFDHFLKQNVTPVYIYEFKFDGELNAIKNWIFATRPVLRHALKGACHADEIYYLFRNNLSGVVPKPNSPELEMCKAMGKMWSNFAKTGDPNSLDLSFKWNYASASDTKYLSIDGDRTQMTQGMINNNRSRFWKDLIKESIV
notes: pET-28a His6-tag fusion (tag kept), E. coli BL21(DE3); catalytic triad S185-E312-H432
- Km: 42.98 ± 6.73 µM
- kcat: 5.50 ± 0.28 s⁻¹
- kcat/Km: 130000 M⁻¹ s⁻¹

— article PMC6068260, “Functional Analysis of a Carboxylesterase Gene Associated With Isoprocarb and Cyhalothrin Resistance in Rhopalosiphum padi (L.)” (Frontiers in Physiology, 2018)
